This is an account of results in article PMC9262799, “The first step into phenolic metabolism in the hornwort Anthoceros agrestis: molecular and biochemical characterization of two phenylalanine ammonia-lyase isoforms” (Planta, 2022).

Broadly, the Km is the substrate concentration at which the rate is half of its maximum. A word on the Vmax: it is the top rate of the reaction or transport when substrate is in excess. In general, kcat refers to the maximal rate divided by the concentration of active sites. A word on the kcat/Km: it is the turnover number divided by the Michaelis constant.

What all share (type): biochemical, Anthoceros agrestis
Data set [1] relates to T1, N[C@@H](Cc1ccc(O)cc1)C(=O)O.
T1 construct: full-length, 753 residues (81,704 Da), N-terminal 6xHis-tag kept (83,867 Da with tag), pET15b, E. coli SoluBL21, Ni-NTA; cDNA from suspension culture; PALs mostly homotetramers, oligomer not measured here
The data set is described as follows: HPLC of 4-coumaric acid formed, Michaelis-Menten fit. The following applies: boric acid/sodium tetraborate buffer pH 8.8, 36 °C, 15 min, 0-9.6 mM Tyr. An excerpt:
HPLC of 4-coumaric acid formed, Michaelis-Menten fit on AaPAL2

Data set [2] relates to T2, N[C@@H](Cc1ccccc1)C(=O)O.
T2 construct: full-length, 753 residues (81,704 Da), N-terminal 6xHis-tag kept (83,867 Da with tag), pET15b, E. coli SoluBL21, Ni-NTA; cDNA from suspension culture; PALs mostly homotetramers, oligomer not measured here
Put plainly: HPLC of t-cinnamic acid formed, Michaelis-Menten fit. To be noted: boric acid/sodium tetraborate buffer pH 8.8, 36 °C, 4 min, 1-500 µM Phe. The source says: HPLC of t-cinnamic acid formed, Michaelis-Menten fit on AaPAL2

Data set [3] has as its system T3, N[C@@H](Cc1ccccc1)C(=O)O.
T3 construct: full-length, 752 residues (81,895 Da), N-terminal 6xHis-tag kept (84,058 Da with tag), pET15b, E. coli SoluBL21, Ni-NTA; cDNA from suspension culture; PALs mostly homotetramers, oligomer not measured here
The description is as above. The following applies: boric acid/sodium tetraborate buffer pH 8.8, 36 °C, 10 min, 1-500 µM Phe. The source says: HPLC of t-cinnamic acid formed, Michaelis-Menten fit on AaPAL1

The test system of data set [4] is T4, N[C@@H](Cc1ccc(O)cc1)C(=O)O.
T4 construct: full-length, 752 residues (81,895 Da), N-terminal 6xHis-tag kept (84,058 Da with tag), pET15b, E. coli SoluBL21, Ni-NTA; cDNA from suspension culture; PALs mostly homotetramers, oligomer not measured here
Put plainly: HPLC of 4-coumaric acid formed, Michaelis-Menten fit. The following applies: boric acid/sodium tetraborate buffer pH 8.8, 36 °C, 10 min, 0-9.6 mM Tyr. An excerpt: HPLC of 4-coumaric acid formed, Michaelis-Menten fit on AaPAL1

Chain of AaPAL2 (Anthoceros agrestis) (chain, as listed by the source): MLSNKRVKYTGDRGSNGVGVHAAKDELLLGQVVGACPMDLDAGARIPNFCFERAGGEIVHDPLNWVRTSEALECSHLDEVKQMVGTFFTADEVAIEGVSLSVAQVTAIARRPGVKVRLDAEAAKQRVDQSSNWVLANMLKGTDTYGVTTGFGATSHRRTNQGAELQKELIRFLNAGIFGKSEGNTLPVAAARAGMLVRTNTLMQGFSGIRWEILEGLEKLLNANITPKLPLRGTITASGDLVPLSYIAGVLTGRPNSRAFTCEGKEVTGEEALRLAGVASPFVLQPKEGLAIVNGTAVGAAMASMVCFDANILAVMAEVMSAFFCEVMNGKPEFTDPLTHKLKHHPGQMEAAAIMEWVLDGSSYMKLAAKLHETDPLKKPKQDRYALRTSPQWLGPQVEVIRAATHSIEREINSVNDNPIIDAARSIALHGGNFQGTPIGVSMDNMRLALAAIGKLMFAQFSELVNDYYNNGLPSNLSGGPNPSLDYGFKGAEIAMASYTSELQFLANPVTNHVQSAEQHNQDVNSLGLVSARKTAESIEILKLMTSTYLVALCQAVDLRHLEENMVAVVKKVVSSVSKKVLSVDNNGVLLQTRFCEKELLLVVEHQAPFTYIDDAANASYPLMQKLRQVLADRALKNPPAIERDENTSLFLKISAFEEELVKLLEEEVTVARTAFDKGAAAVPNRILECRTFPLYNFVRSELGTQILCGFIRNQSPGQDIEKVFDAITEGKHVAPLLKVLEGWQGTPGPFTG
Chain of AaPAL1 (Anthoceros agrestis) (chain, as listed by the source): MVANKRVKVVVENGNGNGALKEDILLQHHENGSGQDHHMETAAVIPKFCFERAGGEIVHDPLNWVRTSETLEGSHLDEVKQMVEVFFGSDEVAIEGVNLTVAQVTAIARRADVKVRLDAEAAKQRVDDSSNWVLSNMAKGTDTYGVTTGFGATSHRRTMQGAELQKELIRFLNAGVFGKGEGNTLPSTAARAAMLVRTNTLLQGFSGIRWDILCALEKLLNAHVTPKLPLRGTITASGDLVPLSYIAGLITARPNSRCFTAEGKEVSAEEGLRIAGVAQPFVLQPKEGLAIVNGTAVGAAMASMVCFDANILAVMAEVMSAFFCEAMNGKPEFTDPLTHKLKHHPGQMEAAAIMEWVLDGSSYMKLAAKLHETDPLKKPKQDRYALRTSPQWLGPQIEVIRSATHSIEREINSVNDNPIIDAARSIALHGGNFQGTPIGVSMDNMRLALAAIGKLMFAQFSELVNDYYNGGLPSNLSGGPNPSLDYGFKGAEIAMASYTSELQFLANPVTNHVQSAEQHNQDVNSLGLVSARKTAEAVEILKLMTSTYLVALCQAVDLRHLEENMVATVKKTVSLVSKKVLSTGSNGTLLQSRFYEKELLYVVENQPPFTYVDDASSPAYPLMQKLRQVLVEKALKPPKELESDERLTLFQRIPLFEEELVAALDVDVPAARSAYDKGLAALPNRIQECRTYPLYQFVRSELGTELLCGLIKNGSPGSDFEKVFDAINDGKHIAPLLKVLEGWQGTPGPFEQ

For the substance AaPAL2 (Anthoceros agrestis), in data set [1], the Michaelis constant (Km) amounted to 3526 ± 617 µM, the Vmax came out at 0.0296 µmol/min/mg, the kcat was determined as 0.041 s⁻¹ and the catalytic efficiency (kcat/Km) was 11.6 M⁻¹ s⁻¹. In addition, in data set [2], the Km worked out at 18 ± 4 µM, the Vmax was 0.206 µmol/min/mg, the kcat stood at 0.288 s⁻¹ and the catalytic efficiency (kcat/Km) was found to be 16000 M⁻¹ s⁻¹.

As to AaPAL1 (Anthoceros agrestis), in data set [3], the Km amounted to 39 ± 15 µM, the Vmax turned out to be 0.252 µmol/min/mg, the catalytic constant (kcat) was 0.353 s⁻¹ and the kcat/Km stood at 9050 M⁻¹ s⁻¹. For the same substance, in data set [4], the Km is 3308 ± 987 µM, the Vmax was 0.058 µmol/min/mg, the kcat is 0.081 s⁻¹ and the kcat/Km is 24.5 M⁻¹ s⁻¹.
